Columns and labels:
negative-stain EM = molecular target: the molecule itself; test: negative-stain EM
cryo-EM structure [1] = molecular target: the molecule itself; test: cryo-EM structure
cryo-EM structure [2] = molecular target: the molecule itself; test: cryo-EM structure; remark: listed apart in the source

B1: B. subtilis ClpCDWB (E280A/E618A), catalytically inactive mutant (enzyme, UniProt P37571 1-810, looked up)
chain: MMFGRFTERAQKVLALAQEEALRLGHNNIGTEHILLGLVREGEGIAAKALQALGLGSEKIQKEVESLIGRGQEMSQTIHYTPRAKKVIELSMDEARKLGHSYVGTEHILLGLIREGEGVAARVLNNLGVSLNKARQQVLQLLGSNETGSSAAGTNSNANTPTLDSLARDLTAIAKEDSLDPVIGRSKEIQRVIEVLSRRTKNNPVLIGEPGVGKTAIAEGLAQQIINNEVPEILRDKRVMTLDMGTVVAGTKYRGEFEDRLKKVMDEIRQAGNIILFIDALHTLIGAGGAEGAIDASNILKPSLARGELQCIGATTLDEYRKYIEKDAALERRFQPIQVDQPSVDESIQILQGLRDRYEAHHRVSITDDAIEAAVKLSDRYISDRFLPDKAIDLIDEAGSKVRLRSFTTPPNLKELEQKLDEVRKEKDAAVQSQEFEKAASLRDTEQRLREQVEDTKKSWKEKQGQENSEVTVDDIAMVVSSWTGVPVSKIAQTETDKLLNMENILHSRVIGQDEAVVAVAKAVRRARAGLKDPKRPIGSFIFLGPTGVGKTELARALAESIFGDEESMIRIDMSEYMEKHSTSRLVGSPPGYVGYDEGGQLTEKVRRKPYSVVLLDAIEKAHPDVFNILLQVLEDGRLTDSKGRTVDFRNTILIMTSNVGASELKRNKYVGFNVQDETQNHKDMKDKVMGELKRAFRPEFINRIDEIIVFHSLEKKHLTEIVSLMSDQLTKRLKEQDLSIELTDAAKAKVAEEGVDLEYGARPLRRAIQKHVEDRLSEELLRGNIHKGQHIVLDVEDGEFVVKTTAKTN
stoichiometry N (negative-stain EM): 10 | stoichiometry N (cryo-EM structure [1]): 6 | stoichiometry N (cryo-EM structure [2]): 24
